This data set concerns the target T1, POLγA A449T (UniProt P54099 26-1218, A450T).
T1 sequence: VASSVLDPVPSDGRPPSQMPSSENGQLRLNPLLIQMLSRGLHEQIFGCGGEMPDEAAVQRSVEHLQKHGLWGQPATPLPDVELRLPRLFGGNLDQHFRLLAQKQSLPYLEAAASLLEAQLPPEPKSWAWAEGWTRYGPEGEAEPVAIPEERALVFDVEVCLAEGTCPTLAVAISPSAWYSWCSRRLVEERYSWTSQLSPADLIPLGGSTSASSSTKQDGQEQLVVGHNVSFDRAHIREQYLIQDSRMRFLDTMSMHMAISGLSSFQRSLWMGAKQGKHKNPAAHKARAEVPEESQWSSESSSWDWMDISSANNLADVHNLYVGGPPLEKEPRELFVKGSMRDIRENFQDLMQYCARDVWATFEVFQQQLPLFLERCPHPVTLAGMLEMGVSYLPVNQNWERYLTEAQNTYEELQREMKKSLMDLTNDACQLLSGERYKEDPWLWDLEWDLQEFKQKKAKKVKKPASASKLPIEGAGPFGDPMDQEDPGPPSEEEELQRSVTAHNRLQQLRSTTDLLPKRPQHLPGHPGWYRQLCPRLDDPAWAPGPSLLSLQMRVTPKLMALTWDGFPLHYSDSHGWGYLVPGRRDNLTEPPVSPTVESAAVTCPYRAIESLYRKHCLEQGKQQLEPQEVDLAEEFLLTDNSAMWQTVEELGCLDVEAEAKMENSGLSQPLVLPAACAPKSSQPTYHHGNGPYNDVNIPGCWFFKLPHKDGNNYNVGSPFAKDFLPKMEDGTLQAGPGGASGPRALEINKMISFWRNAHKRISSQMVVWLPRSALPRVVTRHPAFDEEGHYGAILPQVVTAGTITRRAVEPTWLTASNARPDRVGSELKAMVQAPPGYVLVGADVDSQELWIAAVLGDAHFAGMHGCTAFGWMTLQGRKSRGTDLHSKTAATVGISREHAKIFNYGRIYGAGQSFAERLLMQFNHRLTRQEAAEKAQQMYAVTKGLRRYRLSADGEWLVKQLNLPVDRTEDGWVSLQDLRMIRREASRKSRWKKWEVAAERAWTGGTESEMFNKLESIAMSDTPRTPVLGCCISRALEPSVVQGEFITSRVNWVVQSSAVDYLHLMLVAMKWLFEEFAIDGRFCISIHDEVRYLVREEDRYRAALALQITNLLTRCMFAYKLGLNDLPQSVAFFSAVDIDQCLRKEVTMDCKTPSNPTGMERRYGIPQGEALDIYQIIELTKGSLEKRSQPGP
Briefly: EMSA; POLγA alone; 10 mM MgCl2, ddGTP, dCTP, ATP; Kd in Suppl. Fig. 5A, value not in material; EMSA: 10 fmol DNA in 15 µl, 20 mM Tris-HCl pH 7.8, 1 mM DTT, 0.1 mg/ml BSA, 10 mM MgCl2, 10% glycerol, 2 mM ATP, 0.3 mM ddGTP, 3 mM dCTP, RT 10 min; 6% native PAGE 0.5x TBE. Conditions: protein: recombinant; label: 5'-32P on strand 2 (21-mer); 5' overhang 15 nt on strand 1; 21 bp duplex; primer-template. On the technique in general: In EMSA bound probe runs differently from free probe, usually more slowly.

B1: 36-nt/21-nt primed template (mixed)
DNA 1: TTTTTTTTTTATCCGGGCTCCTCTAGACTCGACCGC
DNA 2: GCGGTCGAGTCTAGAGGAGCC
For the molecule B1, the binding signal is ~3.4 fold weaker than WT.

(Values after paper doi:10.1101/2020.09.10.291369, “In vivo and in vitro mechanistic characterization of a clinically relevant PolγA mutation”.)
